Results published in patent US20230192799A1 (BIOMARIN PHARMACEUTICAL, published 2023).
Bridge positions count the residues as written; N and C are the ends. Ends that are not written are not given here.

The binders below were run against natriuretic peptide receptor-B (NPR-B) on the cells of the cGMP stimulation assay of Example 2 (assay: cell-based or functional assay).

Row | Binder | EC50, T0 (cGMP stimulation assay) [nM]
1 | Ac-PGQEHPNARRYRGANRRGLSRGCFGLKLDRIGSMSGLGC-NH2 (disulfide 23-39 (inferred)) [CNP-7] | 2.1
2 | PGQEHPNARKYKGANKKGLSKGCFGLKLDRIGSMSGLGC (disulfide 23-39 (inferred)) [Pro-Gly CNP-37] | 1.7
3 | Ac-PGQEHPQARRYRGAQRRGLSRGCFGLKLDRIGSMSGLGC-OH (disulfide 23-39 (inferred)) [CNP-8] | 0.2
4 | Ac-PGQEHPNARRYRGANRRGLSRGCFGLKLDRIGSMSGLGC-OH (disulfide 23-39 (inferred)) [CNP-6] | 0.4
5 | Ac-PGQEHPNARKYKGANKKGLSKGCFGLKLDRIGSMSGLGC-NH2 (disulfide 23-39 (inferred)) [CNP-5] | 3
6 | Ac-PGQEHPQARRYRGAQRRGLSRGCFGLKLDRIGSMSGLGC-NH2 (disulfide 23-39 (inferred)) [CNP-9] | 0.9
